{
  "source": "paper PMC9854251",
  "proteins": {"B1": {"name": "hHINT2 WT (Homo sapiens) (protein)", "chain": "GNEVAKAQQATPGGAAPTIFSRILDKSLPADILYEDQQCLVFRDVAPQAPVHFLVIPKKPIPRISQAEEEDQQLLGHLLLVAKQTAKAEGLGDGYRLVINDGKLGAQSVYHLHIHVLGGRQLQWPPG"}, "B2": {"name": "hHINT2 R99Q (Homo sapiens; R99Q) (protein)", "chain": "B1 chain with R63Q"}, "B3": {"name": "hHINT2 R99A (Homo sapiens; R99A) (protein)", "chain": "B1 chain with R63A"}, "B4": {"name": "hHINT1 Q62A (Homo sapiens; Q62A) (protein)", "chain": "MADEIAKAQVARPGGDTIFGKIIRKEIPAKIIFEDDRCLAFHDISPQAPTHFLVIPKKHISAISVAEDDDESLLGHLMIVGKKCAADLGLNKGYRMVVNEGSDGGQSVYHVHLHVLGGRQMHWPPG"}, "B5": {"name": "hHINT1 Q62R (Homo sapiens; Q62R) (protein)", "chain": "B4 chain with A62R"}},
  "substrate": "Nc1ncnc2c1ncn2[C@@H]1O[C@H](COP(=O)(O)NCCc2c[nH]c3ccccc23)[C@@H](O)[C@H]1O",
  "test": "Steady-state kinetics assay",
  "assay_type": "biochemical, human",
  "conditions": "other: steady-state 25 °C, pH 7.2",
  "note": "Residue numbers refer to the chain shown, from its start. In names and notes the source's numbering stands.",
  "data": [
    {"protein": "B1", "values": [
      {"measurement": "Km", "setting": "hHINT2 WT", "result": "0.91 ± 0.098", "unit": "µM"},
      {"measurement": "kcat", "setting": "hHINT2 WT", "result": "5.77 ± 0.34", "unit": "s⁻¹"},
      {"measurement": "kcat/Km", "setting": "hHINT2 WT", "result": "6.3e+06 ± 1e+06", "unit": "M⁻¹ s⁻¹"}
    ]},
    {"protein": "B2", "values": [
      {"measurement": "Km", "setting": "hHINT2 R99Q", "result": "0.84 ± 0.155", "unit": "µM"},
      {"measurement": "kcat", "setting": "hHINT2 R99Q", "result": "6.01 ± 0.26", "unit": "s⁻¹"},
      {"measurement": "kcat/Km", "setting": "hHINT2 R99Q", "result": "7.2e+06 ± 1.1e+06", "unit": "M⁻¹ s⁻¹"}
    ]},
    {"protein": "B3", "values": [
      {"measurement": "Km", "setting": "hHINT2 R99A", "result": "0.683 ± 0.042", "unit": "µM"},
      {"measurement": "kcat", "setting": "hHINT2 R99A", "result": "2.65 ± 0.19", "unit": "s⁻¹"},
      {"measurement": "kcat/Km", "setting": "hHINT2 R99A", "result": "3.88e+06 ± 810000", "unit": "M⁻¹ s⁻¹"}
    ]},
    {"protein": "B4", "values": [
      {"measurement": "Km", "setting": "hHINT1 Q62A", "result": "0.015 ± 0.003", "unit": "µM"},
      {"measurement": "kcat", "setting": "hHINT1 Q62A", "result": "0.45 ± 0.02", "unit": "s⁻¹"},
      {"measurement": "kcat/Km", "setting": "hHINT1 Q62A", "result": "2.8e+07 ± 4e+06", "unit": "M⁻¹ s⁻¹"}
    ]},
    {"protein": "B5", "values": [
      {"measurement": "Km", "setting": "hHINT1 Q62R", "result": "0.136 ± 0.03", "unit": "µM"},
      {"measurement": "kcat", "setting": "hHINT1 Q62R", "result": "1.4 ± 0.09", "unit": "s⁻¹"},
      {"measurement": "kcat/Km", "setting": "hHINT1 Q62R", "result": "1.1e+07 ± 2.4e+06", "unit": "M⁻¹ s⁻¹"}
    ]}
  ]
}
